Assay results from the supplement of paper PMC10567573.

B1: CDS2 (parent)
chain: LIVVTQSHLVIHNLFEGMIWFIVP
B2: ISL2 (parent)
chain: HYPFLGAMGDHSKKKPGTAMCVGC

Variants of: B1
Assay: protein stability index of a GFP-peptide fusion (GPS, HEK-293T) (PSI 1-6); higher = more stable
Settings: c terminus: a fixed tail appended
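Note: lentivirally expressed fusions sorted by FACS into six bins by GFP to DsRed ratio, PSI derived from sequencing read proportions per bin multiplied by bin number.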

Variant	protein stability index
V3G	3.92
V3W	4.23
V3L	2.57
V3Q	2.14
V3T	2.85
V3R	2.14
V3I	3.46
V3N	2.96
V3K	3.44
V3S	3.43
V3H	3.21
V3Y	2.91
V3P	3.31
V3E	2.45
V3F	3.18
I2T	2.77
I2K	4.33
I2L	3.84
I2S	2.69
I2D	1.02

Variant	protein stability index
I2H	3.16
I2M	2.66
I2V	3.01
I2C	1.83
I2F	1.75
I2R	3.79
I2W	3.71
I2G	2.41
L1V	3.56
L1P	3.61
L1F	3.17
L1M	3.16
L1Y	3.07
L1R	3.84
L1A	3.25
L1S	3.83
L1Q	4.19
L1H	3.11
L1N	2.67
L1I	3.5

Variant	protein stability index
L1D	3.86
L1T	4.15
V4T	3.04
V4N	3.21
V4P	2.36
V4R	3.46
V4Q	2.74
V4C	3.17
V4D	3.18
V4G	3.49
V4M	3.42
V4F	2.09
V4W	1.83
V4K	4.3
V4S	4.44
T5C	4.62
T5G	4.08
T5E	2.95
T5A	2.62

Variants of: B2
Assay: as above
Settings: c terminus: a fixed tail appended

Variant	protein stability index
A7Q	3.22
A7P	2.6
A7I	1.9
A7S	2.74
A7L	2.45
A7Y	1.84
A7E	3.79
A7W	1.95
A7C	3.85
A7V	2.37
A7T	2.93
Y2E	3.62
Y2M	2.97
Y2G	3.54
Y2W	2.16
Y2R	2.94
Y2A	3.43
Y2C	2.53
Y2K	2.83
Y2P	3.58
Y2N	4.08
H11F	2.19
H11M	2.74
H11Y	1.99
H11S	2.35

Variant	protein stability index
H11W	1.93
H11K	2.9
H11E	3.44
G23Y	1.69
G23E	3.25
G23P	3.31
G23I	2.16
G23T	2.96
G23R	2.43
G23F	2.44
G23D	3.32
G23W	1.85
G23M	1.58
G23C	3.18
G23Q	2.57
G23V	2.28
G23L	1.8
G23S	2.76
V22S	3.6
V22A	3.04
V22K	3.18
V22Y	2.34
V22R	3.57
V22H	3.01
V22W	1.35

Variant	protein stability index
V22G	3.59
V22Q	3.44
V22E	3.46
V22N	3.61
M20P	3.03
M20I	2.29
M20G	3.03
M20N	3.16
M20C	3.18
M20H	2.85
M20L	2.44
M20Q	3.09
M20F	1.87
M20D	3.61
M20T	3.16
P16T	2.37
P16A	2.52
P16M	2.45
P16E	3.07
P16C	3.12
P16G	2.19
P16R	1.99
P16Y	2.42
P16F	1.62
P16D	3.02

Variant	protein stability index
P16V	2.06
P16K	2.24
P16L	2.17
C24F	2.23
C24K	4.12
C24A	3.09
C24I	2.8
C24P	3.82
C24V	3.24
C24S	3.46
C24D	4.13
C24E	4.5
C24R	3.52
C24M	2.52
C24Y	2.75
C24Q	4.02
C24N	3.64
L5N	2.49
L5F	3.19
L5H	2.96
L5K	2.47
L5C	3.56
L5W	2.23
L5E	3.78
K13I	2.04

Variant	protein stability index
K13V	2.4
K13S	2.64
K13C	3.8
K13E	3.07
K13H	3.04
K13P	2.84
K13Q	2.69
K13T	2.8
K13W	1.9
K13F	2.34
S12D	3.26
S12C	3.95
S12M	1.92
S12Y	2.48
S12R	2.72
S12A	2.53
S12N	2.92
S12P	2.27
S12K	2.56
S12H	2.73
S12W	2.52
S12I	1.8
H1W	2.59
H1F	2.02
H1T	2.69

Variant	protein stability index
H1C	2.11
H1E	2.05
H1I	1.95
H1G	2.64
T18I	2
T18W	1.47
T18G	2.5
T18D	3.4
T18M	2.67
T18E	2.94
T18N	2.71
T18Q	2.67
T18A	2.62
T18P	2.65
T18H	2.59
T18S	2.76
T18C	3.02
T18Y	2.15
T18V	2.25
G9F	1.7
G9P	2.96
G9C	3.51
G9Q	2.77
G9V	2.09
G9Y	2.31

Variant	protein stability index
G9R	2.19
G9H	3.05
G6M	2.07
G6I	2.27
G6W	1.75
G6Q	2.81
G6Y	2.49
G6D	3.2
G6T	2.81
G6N	2.54
G6A	3.07
G6C	3.15
G6P	2.83
G6K	2.92
M8Q	3.16
M8K	3
M8H	2.8
M8F	2.55
M8I	2.3
M8A	4.25
M8L	3.55
M8D	3.52
M8S	2.52
M8T	2.82
M8P	3.07

Variant	protein stability index
K15N	2.61
K15F	2.07
K15Y	2.02
K15S	2.52
K15E	2.77
K15G	2.37
K15D	2.75
K15W	1.67
K15V	2.13
K15I	2.05
G17H	3.18
G17K	3.11
G17W	1.63
G17L	2.1
G17F	2.46
G17T	2.8
G17D	3.35
G17Q	3.46
G17R	2.23
G17I	1.98
G17M	2.43
G17S	2.75
G17V	2.26
F4K	2.92
F4G	3.25

Variant	protein stability index
F4S	3.48
F4T	3.19
F4H	3.73
F4A	3.75
F4L	2.51
F4W	3.02
F4D	3.83
F4I	3.03
F4Y	2.21
F4N	3.38
F4R	2.89
F4C	3.27
F4P	3.34
D10M	1.79
D10A	2.39
D10H	2.52
D10N	2.07
D10L	2.39
D10C	2.6
D10S	2.86
D10Y	1.56
D10T	2.37
D10P	2.35
D10V	1.7
D10F	1.81

Variant	protein stability index
D10Q	1.78
K14W	1.51
K14N	2.8
K14S	2.51
K14F	1.98
K14D	3
K14C	4.25
K14Q	2.45
K14T	2.58
K14G	2.34
K14E	3.44
K14Y	1.74
K14H	3.07
P3A	2.32
P3I	2.26
P3M	2.18
P3F	1.93
P3Q	3.11
P3D	1.96
P3H	2.31
P3N	2.5
P3V	2.06
P3L	1.77
P3T	2.04
P3S	2.27

Variant	protein stability index
A19E	3.29
A19W	1.3
A19S	3.72
A19K	2.8
A19R	2.06
A19Y	2.12
A19I	2.16
A19M	2.28
A19T	2.76
A19V	2.37
A19Q	2.91
A19D	3.66
A19G	2.32
C21G	3.12
C21W	1.91
C21V	2.72
C21Y	2.97
C21T	3.71
C21F	2.71
C21P	3.59
C21E	3.39
C21A	2.94
C21L	3.31
C21H	3.04
C21Q	3.43
